These results are taken from paper doi:10.1101/2020.01.21.913814.

For the test, the target named is T1, His-tagged Arabidopsis thaliana full-length UVR8 (UV … LOCUS 8) (Arabidopsis thaliana), Q9FN03.
T1 chain: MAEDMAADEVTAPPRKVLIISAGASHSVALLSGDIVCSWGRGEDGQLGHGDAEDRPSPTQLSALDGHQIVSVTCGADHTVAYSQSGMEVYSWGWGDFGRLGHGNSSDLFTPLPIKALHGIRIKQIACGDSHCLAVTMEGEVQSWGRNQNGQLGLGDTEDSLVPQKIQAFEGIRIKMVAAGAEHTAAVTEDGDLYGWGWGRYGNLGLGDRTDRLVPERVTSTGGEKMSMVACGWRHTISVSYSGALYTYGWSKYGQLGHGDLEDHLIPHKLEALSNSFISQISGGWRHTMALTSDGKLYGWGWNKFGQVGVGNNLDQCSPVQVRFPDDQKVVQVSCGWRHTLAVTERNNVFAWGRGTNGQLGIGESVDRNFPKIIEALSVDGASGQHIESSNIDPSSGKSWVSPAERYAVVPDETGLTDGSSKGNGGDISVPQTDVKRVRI
Put plainly: SDS-PAGE without boiling. To be noted: remark: other sources report otherwise.

B1: His-tagged Arabidopsis thaliana full-length UVR8 (UV … LOCUS 8), Q9FN03 1-440 (natural protein)
chain: T1 chain
Broadly, the stoichiometry N is a count of units in the complex or per binding partner. The molecule B1 yielded a stoichiometry N of 2.
